Residue numbers refer to the chain shown, from its start. Where two headings read alike, the source gives them in different places.
What was measured:
human CD16A-His6 (F158) [1] = target: T1, human CD16A-His6 (F158) (human, UniProt P08637 17-208); experiment: SPR; VHH-Fc captured on anti-human Fc surface
T1 construct: Bought ECD fragment; also called human CD16A (F158); not shown: six-histidine tag (His6)

human CD16A-His6 (V158) [2] = target: T2, human CD16A-His6 (V158) (human, UniProt P08637 17-208); experiment: SPR; VHH-Fc captured on anti-human Fc surface
T2 construct: Bought (Sino Biologics) ECD fragment; also called CD16A 158V; human CD16A (V158); not shown: six-histidine tag (His6)

[3] = target: T3, human CD16A (F158) on NK92mi cells (human, UniProt P08637 17-254); experiment: flow cytometry on NK92mi/CD16A 158F cells
T3 construct: NK92mi cells co-transduced with CD16A (F158) and FcRgamma cDNAs; also called NK92mi/CD16A F158

cyno CD16-His6 [4] = target: T4, cyno CD16-His6 (cyno, UniProt Q8SPW2 17-208); experiment: SPR; VHH-Fc captured on anti-human Fc surface; column head prints 'KD (nM)', koff/kon shows M
T4 construct: Bought ECD fragment; not shown: six-histidine tag (His6)
T4 sequence (Q8SPW2 17-208): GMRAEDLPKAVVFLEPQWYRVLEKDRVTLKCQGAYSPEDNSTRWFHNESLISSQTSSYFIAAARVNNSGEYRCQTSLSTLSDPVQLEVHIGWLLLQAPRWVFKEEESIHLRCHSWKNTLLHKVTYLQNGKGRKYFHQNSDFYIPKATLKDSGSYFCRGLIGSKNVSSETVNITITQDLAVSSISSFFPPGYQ

[5] = target: T5, human CD16B (NA1) on NK92mi cells (human, UniProt O75015 17-200); experiment: flow cytometry on live NK92mi/CD16B NA1 cells, 300 nM VHH-Fc
T5 construct: also called NK92mi/CD16B (NA1); NK92mi/CD16B NA1
T5 chain: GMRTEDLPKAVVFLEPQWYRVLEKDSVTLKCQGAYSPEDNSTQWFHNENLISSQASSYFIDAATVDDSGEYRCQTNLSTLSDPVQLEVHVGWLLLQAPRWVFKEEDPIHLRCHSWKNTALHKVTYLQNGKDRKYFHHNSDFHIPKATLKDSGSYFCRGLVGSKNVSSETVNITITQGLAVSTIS

human CD16A-His6 (F158) [6] = target: T1, human CD16A-His6 (F158); experiment: SPR; VHH-Fc captured on anti-human Fc surface; remark: listed apart in the source
human CD16A-His6 (V158) [7] = target: T2, human CD16A-His6 (V158); experiment: SPR; VHH-Fc captured on anti-human Fc surface; remark: listed apart in the source
[8] = target: T3, human CD16A (F158) on NK92mi cells; experiment: flow cytometry, biotinylated VHH-Fc on NK92mi/CD16A 158F cells, with 10 mg/ml human IgG1 CB6 as competitor
[9] = target: T6, human CD16B (NA2) on NK92mi cells (human, UniProt O75015 17-200); experiment: flow cytometry on live NK92mi/CD16B NA2 cells, 300 nM VHH-Fc
T6 construct: also called NK92mi/CD16B (NA2); NK92mi/CD16B NA2
T6 chain: T5 chain with R20S, N49S, D66N, V90I

human CD16B-His6 (NA1) [10] = target: T7, human CD16B-His6 (NA1) (human, UniProt O75015 17-200); experiment: SPR; VHH-Fc captured on anti-human Fc surface; row head prints 'KD (nM)', taken as M like the rest of the table
T7 construct: Bought ECD fragment; also called CD16B NA1; human CD16B (NA1); not shown: six-histidine tag (His6)
T7 chain: T5 chain

human CD16B-His6 (NA2) [11] = target: T8, human CD16B-His6 (NA2) (human, UniProt O75015 17-200); experiment: as above
T8 construct: Bought ECD fragment; also called CD16B NA2; human CD16B (NA2); not shown: six-histidine tag (His6)
T8 chain: T5 chain with R20S, N49S, D66N, V90I

human CD16A-His6 (F158) [12] = target: T1, human CD16A-His6 (F158); experiment: SPR; VHH-Fc captured on anti-human Fc surface; row head prints 'KD (nM)', koff/kon shows M
human CD16A-His6 (V158) [13] = target: T2, human CD16A-His6 (V158); experiment: as above
human CD16A-His6 (F158) [14] = target: T1, human CD16A-His6 (F158); experiment: as above; remark: listed apart in the source
human CD16A-His6 (V158) [15] = target: T2, human CD16A-His6 (V158); experiment: as above; remark: listed apart in the source
[16] = target: T3, human CD16A (F158) on NK92mi cells; experiment: flow cytometry on live NK92mi/CD16A 158F cells
[17] = target: T3, human CD16A (F158) on NK92mi cells; experiment: flow cytometry, biotinylated VHH-Fc on NK92mi/CD16A 158F cells, without human IgG1 (CB6)
[18] = target: T5, human CD16B (NA1) on NK92mi cells; experiment: flow cytometry on NK92mi/CD16B (NA1) cells
cyno CD16-His6 [19] = target: T4, cyno CD16-His6; experiment: SPR; VHH-Fc captured on anti-human Fc surface
[20] = target: T6, human CD16B (NA2) on NK92mi cells; experiment: flow cytometry on NK92mi/CD16B (NA2) cells
human CD16B-His6 (NA1) [21] = target: T7, human CD16B-His6 (NA1); experiment: SPR; VHH-Fc captured on anti-human Fc surface; row head prints 'KD (nM)', taken as M like the rest of the table
human CD16B-His6 (NA2) [22] = target: T8, human CD16B-His6 (NA2); experiment: as above
[23] = target: T9, human CD16A (V158) on NK92mi cells (human, UniProt P08637 17-254); experiment: flow cytometry on NK92mi/CD16A cells (V158 by paragraph 201)
T9 construct: NK92mi cells co-transduced with CD16A (V158) and FcRgamma cDNAs; also called NK92mi/CD16A V158; NK92mi/CD16A

[24] = target: T5, human CD16B (NA1) on NK92mi cells; experiment: flow cytometry, NK92mi/CD16B (NA1) against NK92mi/CD16A cells (weaker on CD16B)
[25] = target: T3, human CD16A (F158) on NK92mi cells; experiment: flow cytometry, biotinylated antibody on NK92mi/CD16A F158 cells, with 10 mg/ml huIgG1 as competitor
Target sequence in this assay (P08637 17-254 limits assumed): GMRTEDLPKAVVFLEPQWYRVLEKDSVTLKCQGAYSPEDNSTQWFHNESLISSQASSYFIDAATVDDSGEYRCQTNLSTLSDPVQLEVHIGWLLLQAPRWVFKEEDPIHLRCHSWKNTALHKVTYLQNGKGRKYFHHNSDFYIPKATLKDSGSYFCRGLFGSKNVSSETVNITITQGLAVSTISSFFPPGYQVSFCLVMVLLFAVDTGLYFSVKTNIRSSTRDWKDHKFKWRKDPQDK

[26] = target: T3, human CD16A (F158) on NK92mi cells; experiment: flow cytometry, biotinylated antibody on NK92mi/CD16A F158 cells, w/o huIgG
Target sequence in this assay (P08637 17-254 limits assumed): as above

human CD16A-His6 (F158) [27] = target: T1, human CD16A-His6 (F158); experiment: SPR; BG1222P captured by biotin anti-human Fc VHH on neutravidin, analyte in solution
Target sequence in this assay (P08637 17-208): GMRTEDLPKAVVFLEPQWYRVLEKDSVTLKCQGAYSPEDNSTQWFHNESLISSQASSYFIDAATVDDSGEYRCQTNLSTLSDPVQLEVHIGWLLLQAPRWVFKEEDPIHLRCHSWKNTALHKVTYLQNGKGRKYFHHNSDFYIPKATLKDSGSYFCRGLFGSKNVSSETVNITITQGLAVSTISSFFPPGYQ

human CD16A-His6 (V158) [28] = target: T2, human CD16A-His6 (V158); experiment: as above
Target sequence in this assay (P08637 17-208 F176V): as the sequence (P08637 17-208) above, with F160V counted along it

human CD16A-His6 (F158) [29] = target: T1, human CD16A-His6 (F158); experiment: SPR; BG1222P captured by biotin anti-human Fc VHH on neutravidin; column head prints 'KD (nM)', koff/kon shows M
Target sequence in this assay (P08637 17-208): as the sequence (P08637 17-208) above

human CD16A-His6 (V158) [30] = target: T2, human CD16A-His6 (V158); experiment: as above
Target sequence in this assay (P08637 17-208 F176V): as the sequence (P08637 17-208) above, with F160V counted along it

[31] = target: T9, human CD16A (V158) on NK92mi cells; experiment: flow cytometry, biotinylated antibody on NK92mi/CD16A V158 cells, w/o huIgG
Target sequence in this assay (P08637 17-254 F176V limits assumed): as the sequence (P08637 17-254 limits assumed) above, with F160V counted along it

[32] = target: T9, human CD16A (V158) on NK92mi cells; experiment: flow cytometry, biotinylated antibody on NK92mi/CD16A V158 cells, with 10 mg/ml huIgG1 as competitor
Target sequence in this assay (P08637 17-254 F176V limits assumed): as the sequence (P08637 17-254 limits assumed) above, with F160V counted along it

B1: BG523P (VHH-Fc) (VHH)
chain: QVQLVESGGGVVQPGGSLTLSCEASGRTFGSYAVGWFRQALGRGREFVAAIRRSDGTTDYVDSVKGRFTISRDNAKNTVYLQMNSLKPEDTAVYYCAASDSDYEPLGDYWGQGTQVTVSSEPKSSDKTHTCPPCPAPPAAGPSVFLFPPKPKDTLMISRTPEVTCVVVDVSHEDPEVKFNWYVDGVEVHNAKTKPREEQYNSTYRVVSVLTVLHQDWLNGKEYKCKVSNKALAAPIEKTISKAKGQPREPQVYTLPPSREEMTKNQVSLTCLVKGFYPSDIAVEWESNGQPENNYKTTPPVLDSDGSFFLYSKLTVDKSRWQQGNVFSCSVMHEALHNHYTQKSLSLSPGK
notes: Alpaca anti-CD16A VHH fused to a C-terminal human IgG1 mf Fc tag (VHH-Fc); also called parental clone
Human CD16A-His6 (F158) [1]
  koff: 0.000128 s⁻¹
  kon: 319000 M⁻¹ s⁻¹
Human CD16A-His6 (V158) [2]
  koff: 0.000113 s⁻¹
  kon: 276000 M⁻¹ s⁻¹
[3]
  EC50: 10.6 nM
  EMAX (MFI): 9920 MFI
Cyno CD16-His6 [4]
  Kd: 0.289 nM
[5]
  Binding signal at 300 nM (MFI): 577 MFI
Human CD16A-His6 (F158) [6]
  koff: 7.88e-05 s⁻¹
  kon: 224000 M⁻¹ s⁻¹
Human CD16A-His6 (V158) [7]
  koff: 6.22e-05 s⁻¹
  kon: 280000 M⁻¹ s⁻¹
[8]
  EC50: 6.57 nM
  EMAX (MFI): 21300 MFI
[9]
  Binding signal at 300 nM (MFI): 65 MFI
Human CD16B-His6 (NA1) [10]
  Kd: 1760 nM
Human CD16B-His6 (NA2) [11]
  Kd: 4.95 µM
Human CD16A-His6 (F158) [12]
  Kd: 0.353 nM
Human CD16A-His6 (V158) [13]
  Kd: 0.222 nM
Human CD16A-His6 (F158) [14]
  Kd: 0.402 nM
Human CD16A-His6 (V158) [15]
  Kd: 0.408 nM
[16]
  EC50: 15.1 nM
[17]
  EC50: 1.19 nM
  EMAX (MFI): 22100 MFI
[18]
  EC50: 9.52 µg/mL
Cyno CD16-His6 [19]
  koff: 8.09e-05 s⁻¹
  kon: 280000 M⁻¹ s⁻¹
[20]
  EC50: 28.9 µg/mL
Human CD16B-His6 (NA1) [21]
  Kd: 1700 nM
Human CD16B-His6 (NA2) [22]
  Kd: 4.26 µM
[23]
  EC50: 0.242 µg/mL
[24]
  fold change of EC50 against CD16A binding: ~40 fold

B2: MUC1×CD16A multi-specific antibody BG1222P (bispecific antibody, human IgG1, kappa)
chain: EVQLVESGGGLVQPGGSLRLSCAASGRTFGSYAVGWFRQAPGKGREFVAAIRRSDATTDYVDSVKGRFTISRDNAKNTVYLQMNSLKPEDTAVYYCAASDSDYEPLGDYWGQGTLVTVSSGGGGSGGGGSEVQLVESGGGLVQPGGSLRLSCAASGRTFGSYAVGWFRQAPGKGREFVAAIRRSDATTDYVDSVKGRFTISRDNAKNTVYLQMNSLKPEDTAVYYCAASDSDYEPLGDYWGQGTLVTVSSEPKSSDKTHTCPPCPAPELLGGPSVFLFPPKPKDTLYITREPEVTCVVVDVSHEDPEVKFNWYVDGVEVHNAKTKPREEQYNSTYRVVSVLTVLHQDWLNGKEYKCKVSNKALPAPIEKTISKAKGQPREPQVYTLPPSREEMTKNQVSLWCLVKGFYPSDIAVEWESNGQPENNYKTTPPVLDSDGSFFLYSKLTVDKSRWQQGNVFSCSVMHEALHNHYTQKSLSLSPGK
heavy: EVQLLESGGGLVQPGGSLRLSCAASGFTFNDYIMSWVRQAPGKGLEWVATVSSGGDNTYYPDSVKGRFTISRDNSKNTLYLQMNSLRAEDTAVYYCTRYGGLGAMDYWGQGTLVTVSSASTKGPSVFPLAPSSKSTSGGTAALGCLVKDYFPEPVTVSWNSGALTSGVHTFPAVLQSSGLYSLSSVVTVPSSSLGTQTYICNVNHKPSNTKVDKKVEPKSCDKTHTCPPCPAPELLGGPSVFLFPPKPKDTLYITREPEVTCVVVDVSHEDPEVKFNWYVDGVEVHNAKTKPREEQYNSTYRVVSVLTVLHQDWLNGKEYKCKVSNKALPAPIEKTISKAKGQPREPQVYTLPPSREEMTKNQVSLSCAVKGFYPSDIAVEWESNGQPENNYKTTPPVLDSDGSFFLVSKLTVDKSRWQQGNVFSCSVMHEALHNHYTQKSLSLSPGK
light: DIQMTQSPSSLSASVGDRVTITCRASGNIHNYLTWYQQKPGKAPKLLIYNAKTLASGVPSRFSGSGSGTDFTLTISSLQPEDFATYYCQHFWSVPYTFGQGTKLEIKRTVAAPSVFIFPPSDEQLKSGTASVVCLLNNFYPREAKVQWKVDNALQSGNSQESVTEQDSKDSTYSLSSTLTLSKADYEKHKVYACEVTHQGLSSPVTKSFNRGEC
notes: '2+1' IgG-like format: chain 1 = tandem BG526P VHHs-hinge-Fc (knob), chain 2 = huBG219P-E39 heavy chain (hole), chain 3 = huBG219P-E39 kappa light chain; YTE mutations in both Fc; also called BG11222P
[25]
  EC50: 7.99 nM
[26]
  EC50: 0.97 nM
Human CD16A-His6 (F158) [27]
  koff: 8.52e-05 s⁻¹
  kon: 579000 M⁻¹ s⁻¹
Human CD16A-His6 (V158) [28]
  koff: 4.22e-05 s⁻¹
  kon: 886000 M⁻¹ s⁻¹
Human CD16A-His6 (F158) [29]
  Kd: 0.147 nM
Human CD16A-His6 (V158) [30]
  Kd: 0.0477 nM
[31]
  EC50: 0.35 nM
[32]
  EC50: 33.9 nM
